The test system of experiment [1] is [14C]-18:1-LPA and acyl-CoA. Briefly: Determination of substrate specificity for LPAAT (yeast microsomal fraction). Format: biochemical, Saccharomyces cerevisea. The conditions noted are these: comparing FIG. 5 (10 mg/ml BSA) and FIG. 6 (0 mg/ml BSA). As for the experimental part:
The specific activity of the enzyme LPAAT_13842 (Pi) using the substrates indicated at the x-axis is gives as the amount (in nmol) of substrate/product consumed/produced in one minute per mg total protein and was determined as described in example 5. The specific activities measured for microsomal extracts of yeast harboring an empty vector (pYES2.1 ev) is shown as control.
The specific activity of the enzymes BnLPAAT2 and AtLPAAT2-At3g57650 using the substrates indicated at the x-axis is gives as the amount (in nmol) of substrate/product consumed/produced in one minute per mg total protein and was determined as described in example 5. The specific activities measured for microsomal extracts of yeast harboring an empty vector (pYES2 ev) is shown as control.

Experiment [2] relates to yeast mutant lacking LPAAT activity (knockout of the gene YDL052c). Briefly: LPAAT activity assay using yeast extracts (complementation, formation of phosphatidic acid). As to conditions: complements knockout strain; TLC, FIG. 1.
Experimental: Microsomal isolations of these transformants and the wildtype yeast strain BY4742 (lane marked “+”) where incubated with ^14C-labeled oleic acid and lysophosphatidic acid (LPA). Thin layer chromatography was performed to separate lipid classes.
The next day, expression of the acyltransferase polypeptides can be induced by transferring the cells to fresh media containing 2% galactose, for example by inoculating 100 ml of fresh culture to an optical density (measure at 600 nm) of OD600=0.1. Cells are harvested after 24 h incubation at 28° C. by centrifugation at 3000×g for 5 min and resuspended in 1 ml resuspention buffer (25 mM Tris/HCL pH 7.6) and disrupted using acid washed zirconium bead (200 μm average diameter) in a mill (Resch, Germany) by three minutes agitation at 300 rpm. The supernatant is transferred to a fresh tube and centrifuged at 3000×g for 5 min. The obtained supernatant is the crude extract. Protein content is measured according to Bradford (Bradford, M. M. (1976), Anal. Biochem. Bd. 72, pp. 248-254) with bovine serum albumin as standard. Assay mixtures contain 50 μg of protein, 10 μl of 10 mM [^14C]-glycerole-3-phosphate (2000 dpm/nmol), 10 μl of 1 mM 18:1-CoA in assay buffer (25 mM Tris/HCL pH 7.6, 0.5 mg/ml BSA) to give a total volume of 100 μl. Samples are incubated for 10 min at 30° C. The assays are terminated by extraction of the lipids into chloroform according to Blight and Dyer (Bligh, E. G. and Dyer, W. J. (1959), Can. J. Biochem. Physiol. 37, pp. 911-917). Lipids are separated on thin layer chromatography (TLC) silica 60 plates (Merck) using chloroform/methanol/acetic acid/water (90:15:10:3), and autoradiographic pictures are taken using an instant imager (Packard).
For experiment [3], the system named is [14C]-18:1-Lysophosphatidlycholine (-LPC) and acyl-CoA. Briefly: Determination of substrate specificity for LPLAT, lysophosphatidylcholine as acyl-acceptor (LPCAT assay). The conditions noted are these: comparing FIG. 7 (10 mg/ml BSA) and FIG. 9 (0 mg/ml BSA). Format: biochemical, Saccharomyces cerevisea. As for the experimental part: The specific activity of the enzymes LPLAT_18374 (Pi) and LPCAT_02075 (Pi) using the substrates indicated at the x-axis is gives as the amount (in nmol) of substrate/product consumed/produced in one minute per mg total protein and was determined as described in example 6. The specific activities measured for microsomal extracts of yeast harboring an empty vector (pYES2 ev) is shown as control.
The specific activity of the enzymes AtLPCAT1-At1g12640, AtLPCAT2-At1g63050, BnLPCAT1 and BnLPCAT2 using the substrates indicated at the x-axis is gives as the amount (in nmol) of substrate/product consumed/produced in one minute per mg total protein and was determined as described in example 6. The specific activities measured for microsomal extracts of yeast harboring an empty vector (pYES2 ev) is shown as control.

Entries after “also recorded” stand apart in the source; their conditions may differ.

The text below walks through data of patent US9828589B2, “Acyltransferases and uses thereof in fatty acid production” (priority 2009, dated 2017).

B1: LPAAT_13842 (Pi): acyltransferase from Phythophtora infestance, 424 amino acids, SEQ-ID 12, encoded by SEQ-ID 11 (protein)
chain: MSFATPAQVLQDVRFEERFAEIESRLPATLALAKEGSLAKRNQTKRKLYHDSELIRIELEERLNELGIESQWVTAPEMKEANEKLDAVRKQLKLDVLPASSSPLEKIYMVVRMLTMVLVLVGWLSCVTVLIPLKWLNPVLKKMGVKKNYLPMDIVSWGTAFMVCVTACTDMKAEGVENLLNLKDSVVCMFSHSSNLDGFIVNGSSPIAFKFAAKKSIFLVPFLGWSSRWGFDFVAIDRSHRKSALKSLKELAVSVNEHGNSVCISPEGTRSKDGLLQEFKKGPFYLREDTKKNVVPSIVFGAYELWPPGRLFSIPGHTLVRYLPEYKSDPNLNRNQNRLALRRIYLKAFTEDVPDYIGTRVSTNFILKNMFYHYLAWAITFKVTSWALTVISLVLYWLNITYGTFMLFSLVMMVAGEALMFFTC
modifications: Phythophtora infestance
With B1, in experiment [1], the “selectivity towards the length and the desaturation state of the substrate fatty acid” value is “not as selective as AtLPAAT2 and BnLPAAT2”. Besides, the “LPAAT activity (formation of phosphatidic acid, PA)” value in experiment [2] was “having LPAAT activity; also recorded: have LPAAT activity”.

B2: LPLAT_18374 (Pi): acyltransferase from Phythophtora infestance, 558 amino acids, SEQ-ID 8, encoded by SEQ-ID 7 (protein)
chain: MSTTALLQASTSPPPSREPEYAALEQLEPPLSHAIDMGVKVSPSESAAIAGGVYVTASSSCGASTIKHNPFTYTTPVDTYEKAKMTILCLLGVPFIRFVLLLCVGILLVIVSHLALIGYKPLDAHSGARPPLPRWRRIVGSPVPYLLRSLMLIVGYYWVPVKYPPNFNRHAMPRVIVSNHLTFFDGLYIFTLLSPSIAMKTDVANLPLISRIVQMIQPILIDRGTPEGRRRAMNDITSHVADPSKPPLLVFPEGTTSNQTVLCKFKVGSFVSGVPCQPVVLRYPYKHFDLSWPPGVSGLYLALRVLCQVYNRLEVEILPAYYPSERERKDPQLYAINVREVMAKALGVPTTNHAFEDVAMLMRVGDYATKHVVPLTDVGEVISLTALKRGDVDRLVGYFRRHDLDKDGHLSMQELRALFPNDDPVIVDQLFDLVDLDDSGLIDFRELCLALRALNPQNINEGDDALAKFAFRLYDLDNNGVIDASELEQLLRFQRNFYGVSEASVAAALRQAQAENTTGITYNRFEQLVLQNPEVLWYVRDKLEVLRGSMRESSLEIP
modifications: Phythophtora infestance
As for B2, the “selectivity towards the length and the desaturation state of the substrate fatty acid” value in experiment [3] is given as “not as selective as AtLPAAT1 or AtLPCAT2 or BnLPCAT1 or BnLPCAT2”. Further, the “LPAAT activity (formation of phosphatidic acid, PA)” value in experiment [2] is recorded as “having LPAAT activity; also recorded: have LPAAT activity”.
